The values that follow come from PMC11434081, “Cross-Effects in Folding and Phase Transitions of hnRNP A1 and C9Orf72 RNA G4 In Vitro” (Molecules, 2024).

Numbering of substitutions follows the chain as printed. Names may count otherwise.

The data set deals with the molecule itself. Kind of data set: thioflavin T fluorescence (fibrillation assay); self-association of the peptide into cross-beta fibrils; 40 µM peptide, 13 µM ThT, 0.5 mM DTT, 40 mM HEPES-KOH pH 7.4, 150 mM KCl or NaCl (methods), room temperature (RGG-PLD^mut-NLS also at 37 °C), at least 3 h.

B1: RGG-PLD^mut-NLS (hnRNP A1 aa 218–272, D262V) (peptide)
peptide: RGGNFSGRGGFGGSRGGGGYGGSGDGYNGFGNDGSNFGGGGSYNVFGNYNNQSSN
notes: hnRNP A1, human, residues 218-272 with D262V; Synthesised on an amide resin, so the C-terminus may be amidated; source: synthetic peptide (Fmoc solid phase, RP-HPLC purified)
Regarding B1, the “reduction of the ThT signal relative to PLD^mut-NLS” value stood at 30 ± 10%.

B2: RGG-PLD^wt-NLS (hnRNP A1 aa 218–272, wild type) (peptide)
peptide: B1 peptide with V45D
notes: hnRNP A1, human, residues 218-272, wild type; Synthesised on an amide resin, so the C-terminus may be amidated; source: synthetic peptide (Fmoc solid phase, RP-HPLC purified)
As to B2, the “fold lower fibrillation (ThT) than RGG-PLD^mut-NLS” value was approximately 2 fold.

B3: PLD^mut-NLS (hnRNP A1 aa 234–272, D262V) (peptide)
peptide: GGGYGGSGDGYNGFGNDGSNFGGGGSYNVFGNYNNQSSN
notes: hnRNP A1, human, residues 234-272 with D262V; Synthesised on an amide resin, so the C-terminus may be amidated; source: synthetic peptide (Fmoc solid phase, RP-HPLC purified)
Regarding B3, the binding result is listed as “binds”.
